The text below walks through data of US20100261647A1 (ARMAGEN TECHNOLOGIES, published 2010).

The target of test [1] is T1, human insulin receptor extracellular domain (HIR ECD) (human, UniProt P06213 28-956, limits assumed).
T1 construct: extracellular domain
The experiment in a line: ELISA on plated HIR ECD, detection with biotinylated goat anti-human IgG (H+L). The procedure:
CHO cells permanently transfected with the HIR ECD were grown in serum free media (SFM), and the HIR ECD was purified with a wheat germ agglutinin affinity column.

Test [2] concerns the target T1, human insulin receptor extracellular …. Kind of test: competitive ligand binding assay, displacement of [125I]-murine HIRMAb from plated HIR ECD, Scatchard analysis. As for the experimental part:
CHO cells transfected with the HIR ECD were grown in serum free media (SFM), and the HIR ECD was purified with a wheat germ agglutinin affinity column.

B1: chimeric HIRMAb (chimeric monoclonal antibody against the human insulin receptor) (antibody, human IgG1, kappa, V domains shown)
VH: QVQLQQSGPELVKPGALVKISCKASGYTFTNYDIHWVKQRPGQGLEWIGWIYPGDGSTKYNEKFKGKATLTADKSSSTAYMHLSSLTSEKSAVYFCAREWAYWGQGTLVTVSA
VL: DIQMTQSPSSLSASLGERVSLTCRASQDIGGNLYWLQQGPDGTIKRLIYATSSLDSGVPKRFSGSRSGSDYSLTISSLESEDFVDYYCLQYSSSPWTFGGGTKMEIKR
notes: Chimeric human IgG1/kappa
B1: the EC50 in test [1] was 0.21 nM. In test [2], this molecule gave a Ki of 0.63 nM.
